# Measurements: the nanobody polyreactivity screen of Harvey et al. (2022)
# Assay: yeast display, Sf9 membrane polyspecificity reagent, FACS + sequencing; frameworks hold sequencing errors
# Procedure, shortened: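 Galactose-induced (36–48 hours) yeast carrying a synthetic nanobody display library were exposed to 10% biotinylated, detergent-solubilized Sf9 membrane reagent at 4 °C for 1 hour. FACS followed streptavidin microbead enrichment, using low and high (top ~1%) gates for expression (anti-HA) and reagent binding (streptavidin). Colony PCR, MiSeq 2 × 250 sequencing and CDR-length filtering followed. Labels for polyreactivity reflect the gate of origin.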
row,Sequence,polyreactivity (PSR sort gate)
1,QVQLVESGGGLVQAGGSLRLSCAASGSTFVWYAMGWYRQAPGKEREFDATISWSDGSRYYADSVKGRFTISRDNAKNTVYLHMNSLKPEDPAVYYCASDVDRFFTYTYDYWGQGTQVTVSS,low polyreactivity
2,QVQLVESGGGLVQAGGSLRLSCAASGSTFVWYAMGWYRQAPGKERELVAVIDWSGGSTSYADSVKGRFTISRDNAKNTVYLQMNSLKPEDTAVYYCAADSGHYYGLYYWGQGTQVTVSS,low polyreactivity
3,QVQLVESGGGLVQAGGSLRLSCAASGSTFVYMGGYRQAPGKEREFVAITFSGGRTYADSVKGRFTISRDNAKNTVYLQMNSLKPEDTAVYYCNKGDDFYSTYSYDYWGQGTQVTVSS,low polyreactivity
4,QVQLVESGGGLVQAGGSLRLSCAASGSTFVYNAMGWYRQAPGKEREFVAVINWSGGRTYADSVKGRFTISRDNAKNTVYLQMISLKPEDTEVYYCIARRRTGYRPAMDYWGQGTEVTVSS,high polyreactivity
5,QVQLVESGGGLVQAGGSLRLSCAASGSTFVYNAMGWYRQAPGKERELVAAISRRGTSTYYADSVKGRFTISRDNAKNTVYLQMNSLKPEDTAVYYCAASQLSRSGQYRRDYWGQGTQVTVSS,high polyreactivity
6,QVQLVESGGGLVQAGGSLRLSCAASGSTFVYNAMGWYRQAPGKERELVAAITVIGGRTYYADSVKGRFTISRDNAKNTVYLQMISLKPEDTAVYYCNADATESIGYYDEYEYWGQGTQVTVSS,low polyreactivity
7,QVQLVESGGGLVQAGGSLRLSCAASGSTFVYSAMGWYRQAPGKERELVAAIRNGDGTNYADSVKGRFTISRDNAMNTVYLQMNSLKPEDTAVYYCAAPQGEYFYVYEFDYWGQGTQVTVSS,low polyreactivity
8,QVQLVESGGGLVQAGGSLRLSCAASGSTFVYYAMGWYRQAPGKERELVAAINRSGTRTYYADSVKGRFTISRDNAKNTVYLQMNSLKPEDTAVYYCAKAVQGKYGYWGQGTQVTVSS,high polyreactivity
9,QVQLVESGGGLVQAGGSLRLSCAASGSTFVYYAMGWYRQAPGKERELVAAISSGGNTKYADSVKGRFTISRDNAKNTVYLQMNSLKPEDTAVYYCARESQSYYDHDYWGQGTQVTVSS,low polyreactivity
10,QVQLVESGGGLVQAGGSLRLSCAASGSTFVYYAMGWYRQAPGKERELVAAITGSVDSTYYADSVKGRFTISRDNAKNTVYLQMNSLKPEDTAVYYCAADTYSTYWGQGTQVTVSS,low polyreactivity
11,QVQLVESGGGLVQAGGSLRLSCAASGSTFVYYDMGWYRQAPGKERELVAAISRGGGSTYYADSVKGRFTISRDNAKNTVYLQMNSLKPEDTAVYYCAAVAGYRYYWGQGTQVTVSS,high polyreactivity
12,QVQLVESGGGLVQAGGSLRLSCAASGSTFVYYTMGWYRQAPGKERELVATISSRGGSTYYADSVKGRFTISRDNAKNTVYLQMNSLKPEDTAVYYCAKRGPFYGNYDYWGQGTQVTVSS,high polyreactivity
13,QVQLVESGGGLVQAGGSLRLSCAASGSTFWANAMGWSRPAPGKERELVAAITSTGITYYADSVKGRFTISRDNAKNTVYLQMNSLIPEDTAVYYCAAEPPDEFWTDLLVDYFLGYEYWGPGTQVTVSS,low polyreactivity
14,QVQLVESGGGLVQAGGSLRLSCAASGSTFWATAMGWYRQAPGKERELVAAITTSGASTNYADSVKGRFTISRDNAKNTVYLQMNSLKPEDTAVYYCAADYDSYYWYNYWGQGTQVTVSS,low polyreactivity
15,QVQLVESGGGLVQAGGSLRLSCAASGSTFWEYAMGWYRQAPGKEREFVAAISYRGGGTYYADSVKGRFTISRDNAKNTVYLQKNSLKPEDTAVYYCAARRWRGRYWGDYWGQGTQVTVSS,high polyreactivity
16,QVQLVESGGGLVQAGGSLRLSCAASGSTFWFNAMGWYRQAPGKEREFVAAITWRGGSTYYSDSVKGRFTISRDNAKNTVYLQMNSLKPEDTAVYYCAAVTAYYYRRTYEYWGQGTQVTVSS,high polyreactivity
17,QVQLVESGGGLVQAGGSLRLSCAASGSTFWFYAMGWYRPAPGKERELVAVISNSGSTYYADSVKGRFTISRDNAKNTVYLQMNSLQPEDTAVYYCNKDGGGDSYWYDYWGQGTQVTVSS,low polyreactivity
18,QVQLVESGGGLVQAGGSLRLSCAASGSTFWFYAMGWYRQAPGKERELVAAISRSSGSTYYADSVKGRFTISRDNAKNTVYLQMNSLKPEDTAVYYCAKGWSSVPTQYDYWGQGTQVTVSS,low polyreactivity
19,QVQLVESGGGLVQAGGSLRLSCAASGSTFWFYAMGWYRQAPGKERELVAAITSSGSSTYYADSVKGRFTISRDNAKNTVYLQMNCLKPEDTAVYYCAADDSNDSPSLYYVAYNYWGQGTQVTVSS,low polyreactivity
20,QVQLVESGGGLVQAGGSLRLSCAASGSTFWFYAMGWYRQAPGKERELVAVISNSGSTYYADSVKGRFTISRDNAKNTVYLQMNSLKPEDTAVYYCNKDGGGDSYWYDYWGQGTLVTVSS,low polyreactivity
21,QVQLVESGGGLVQAGGSLRLSCAASGSTFWFYAMGWYRQAPGKERELVAVISNSGSTYYADSVKGRFTISRDNAKNTVYLQMNSLKPEDTAVYYSNKDGGGDSYWYDYWGQGTQVTVSS,low polyreactivity
22,QVQLVESGGGLVQAGGSLRLSCAASGSTFWFYAMRWYRQAPGKERELVAAITRSAGSTYYADSVKGRFTISRDNAKNTVYLQMNSLKPEDTAVYYCAAQRESLYGGFDYWGQGTQVTVSS,low polyreactivity

row,Sequence,polyreactivity (PSR sort gate)
1,QVQLVESGGGLVQAGGSLRLSCAASGSTFWGNAMGWYRQAPGKERELVAAISSRGGSTYYADSVKGRFTISRDNAKNTVYLQMNSLKPEDTAVYYCNTLQSSHGSSQYDSWGQGTQVTVSS,low polyreactivity
2,QVQLVESGGGLVQAGGSLRLSCAASGSTFWHYVMGWYRQAPGKERELVAAISNGGRTNYADSVKGRFTISRDNAKNTVYLHMKSMKPEVTAVYYCAARRRVSYHLYGYWGQGTQVTVSS,high polyreactivity
3,QVQLVESGGGLVQAGGSLRLSCAASGSTFWIYAMGWYRQAPGKERELFAAITLRSGSTYYADSVKGRFTISRDNSKNTVYLQMNSLKPEDTAVYYCATDSWGFDSPNYNYWGQCTQVTVSS,low polyreactivity
4,QVQLVESGGGLVQAGGSLRLSCAASGSTFWIYAMGWYRQAPGKERELVAAITLRSGSTYYADSVKGRFTISRDNAKNTVYLQMNSLKPEDTSVYYCATDSWGVDRPNYNYWGQGTQVTVSS,low polyreactivity
5,QVQLVESGGGLVQAGGSLRLSCAASGSTFWPYAMGWYRQAPGKERELVATIRWSGGSTSYADSVKGRFTISRDNAKNTVYVQMNSLKPEDTAVYYCAARDFHYYRFKTYGYWGQGTQVTVSS,high polyreactivity
6,QVQLVESGGGLVQAGGSLRLSCAASGSTFWQNAMGWYRPAPGKERELVAAIRSRGDRTYYADSVKGRFTISRDNAKNTVYLQMNSLKPEDTAVYYCAAYAGYSDQARYYYWGQGTLVTVSS,high polyreactivity
7,QVQLVESGGGLVQAGGSLRLSCAASGSTFWRYAMGWYRQAPGKERELVAGITWNGGSTYYADSVKGRFTISRDNAKNTVYLQMNCLIPEDTAVYYCAARRSWGYIYRLGYGMDYWGQGTQVTVSS,high polyreactivity
8,QVQLVESGGGLVQAGGSLRLSCAASGSTFWSNAMGWYRHAPGKERELVAVISRRCVRKYYADSVKGRFTISRDNAKNNVYLQMNSLKPEDTAVFYCNAEVYGELDYWGQGTQVNVSS,low polyreactivity
9,QVQLVESGGGLVQAGGSLRLSCAASGSTFWSNAMGWYRQAPGKERELVATINSGDGTNYADSVKGRFTISRDNAKNTVYLQMNSLKPEDTAVYYCAAEKYYPWGWYTYDYWGQGTQVTVSS,high polyreactivity
10,QVQLVESGGGLVQAGGSLRLSCAASGSTFWSYAMGWYRPAPGKERELVAAITSGGRTYYADSVKGRFTISRDNAKNTVYLQMNSLKPEDTAVYYCNAVVRHTYRRFDYWGQGTQVTVSS,high polyreactivity
11,QVQLVESGGGLVQAGGSLRLSCAASGSTFWSYAMGWYRQAPGKERELVAAITSGGRTYYADSVKGRFTISRDNAKNTVYLQMNSLKPEDTAVYYCNAVVRHTYRRFDYWGQGTQVTVSS,high polyreactivity
12,QVQLVESGGGLVQAGGSLRLSCAASGSTFWTNAMGWYRQAPGKERQLVAASTEDGGSTYYADSVKGRFTISRDNAKNTVYLQMNSLKREVTAVYYCATVIGYLDDYLFPYPVPYYYWGQGTQVTVSS,low polyreactivity
13,QVQLVESGGGLVQAGGSLRLSCAASGSTFWWYAMGWYRQAPGKERELVAAISIGGATKYADSVKGRFTISRDNAKNTFYLQMNILKPEDTAVYYCAAVVSYHYVPYGYWGQCTQVTVSS,low polyreactivity
14,QVQLVESGGGLVQAGGSLRLSCAASGSTFWWYAMGWYRQAPGKERELVATIRDGGSTNYADSVKGRFTISRDNAKNTVYLQMNSLKPEDTAVYYCNADVYPYYRKPWMDYWGQGTQVTVSS,low polyreactivity
15,QVQLVESGGGLVQAGGSLRLSCAASGSTFWYNAMGWYRQAPGKERELVAAITTRGDSTYYADSVKGRFTISRDNAKNTVYLQMNSLKPEDTAVYYCAADWAWYSYDWYYWYDYWGQGTQVTVSS,high polyreactivity
16,QVQLVESGGGLVQAGGSLRLSCAASGSTFWYYAMGWYRQAPGKERELDADITYSGVSTYYADSVKGRFTISRDNAKNTVYLQMNSLKPEDTAVYYCYADWGSVNGYAGYYYWGQGTQVTVSS,low polyreactivity
17,QVQLVESGGGLVQAGGSLRLSCAASGSTFWYYAMGWYRQAPGKERELVAAITRDGTTYYADSVKGRFTISRDNAKNTVYLQMNSLKPEDTAVYYCAVDIDNWSEYDYWGQGTQVTVSS,low polyreactivity
18,QVQLVESGGGLVQAGGSLRLSCAASGSTFWYYAMGWYRQAPGKERELVAAITTGGDTTNYADSVKGRFTISRDNAKNTVYLQMNSLKPEDTAVYYCARDTGYDLIVLPDDSWGQGTQVTVSS,low polyreactivity
19,QVQLVESGGGLVQAGGSLRLSCAASGSTFWYYGMGWYRQAPGKERELVARINWSTGRTYYADSVKGRFTISRDNAKNTVYLQMNSLKPEDTAVYYCNALNPYKGQEAHYDYWGQGTQVTVSS,high polyreactivity
20,QVQLVESGGGLVQAGGSLRLSCAASGSTFWYYTMGWYRQAPGKERELVATISWRGGRTTYADSVKGRFTISRDNAKNTVYLQMNSLKPEDTAVYYCNAERFPGYGGPSRYLYQEYVYWGQGTQVTVSS,low polyreactivity
21,QVQLVESGGGLVQAGGSLRLSCAASGSTFYANAMGWYRQAPGKERELVAAIDSGGTTTYADSVKGRFTISRDNAKNTVYLQMNSLKPEDTAVYYCAADQYWYFWYDYWGQGTQVTVSS,low polyreactivity
